The data set concerns the molecule itself. The experiment in a line: SEC-MALS; 800 micrograms of purified rBCAS0292 on S75 16/60 in 50 mM Tris-HCl, 150 mM NaCl, 5% glycerol, pH 7.5; DAWN MALS and Optilab rEX; reducing and oxidizing conditions. For orientation: Size exclusion chromatography separates by hydrodynamic size, large species first.

The values below come from PMC9060813, “Protein with negative surface charge distribution, Bnr1, shows characteristics of a DNA‐mimic protein and may be involved in the adaptation of Burkholderia cenocepacia” (MicrobiologyOpen, 2022).

As usually defined, the stoichiometry N is a count of units in the complex or per binding partner.

B1: recombinant BCAS0292 (Burkholderia negatively surface-charged regulatory protein 1), His-tagged (natural protein, Burkholderia cenocepacia, UniProt B4EQ58 1-179, looked up)
chain: MSGVRCDGLAIVDAVTLLSAYPDASRDADAPTVIDGRHIYVLRPGDAGQVGHNDNRLFAGLSPGDQLHLRETALALRAEVTVLFIRFALKDAGIVAPIEAEIRDAATPVPDGDDLLHPSCRPMKDHFWRSEVLAPGITTCTADFAVLDRDGAVSGYFRWETAIEIAGSRPDTKQPGVEP
notes: BCAS0292 protein (Bnr1), PixA family, Burkholderia cenocepacia; calculated molecular weight 19.2 kDa; no cleavage of the tag is told; also called rBCAS0292; rBnr1; source: E. coli BL21 Star (DE3), purified (lysis in 6 M guanidine-HCl, HisPur Ni-NTA, SEC)
B1: the “stoichiometry N” value came out at 2.
